Laboratory results as given in paper PMC8610377, “Target identification for small-molecule discovery in the FOXO3a tumor-suppressor pathway using a biodiverse peptide library” (Cell Chemical Biology, 2021).
Blank lines part the entries; values can stand above or below the molecule they belong to.

Assays:
[1] = system: GFP-FOXO3a localization in U2OS-GFP-FOXO3a cells; assay: FOXO3a relocalisation assay, small-molecule inhibitors, U2OS-GFP-FOXO3a; type: cell-based, human
Experimental: Cells were transfected with plasmid DNA or siRNA or treated with compounds and incubated for the indicated time. Cells were then fixed in a final concentration of 3.7% formaldehyde by addition of fixative directly to the medium for 10min, then stained with 4 μg/mL Hoechst 33,342 (Invitrogen). For testing of peptides in the U2OS-GFP-FOXO3a cell line, cells were transfected with plasmid DNA using FuGENE 6 (Promega, E2691) as described for the screen. For testing of peptides in the HEK293T cell line, cells were co-transfected with a plasmid encoding the test plasmid and a plasmid encoding GFP-FOXO3a using JetPRIME transfection reagent in 96-well plates. At the indicated time point, cells were then fixed and stained as described above. Leptomycin B was purchased from NEB. PI-103 and BEZ235 were purchased from Selleckchem. GSK690693 was purchased from Sigma. […] Average intensities were calculated for each region and the ratio between nuclear and cytoplasmic GFP-FOXO3a was then calculated. […] Results were then expressed as the percentage of cells with nuclear GFP-FOXO3a. […] Images were acquired and then analyzed using a range of nuclear:cytoplasmic ratios to identify a ratio which reproducibly gave the maximal window between DMSO and PI-103 treated cells. […] Median intensities were calculated for each region and the ratio between nuclear and cytoplasmic GFP-FOXO3a was then calculated.

9J10/14-3-3ε interaction = target: T1, 9J10/14-3-3ε interaction (Homo sapiens, UniProt P62258); assay: FP competition, TAMRA-p9J10Min binding to 14-3-3ε; conditions: 10nM TAMRA-p9J10Min, 1.5μM His-14-3-3ε, room temperature 20 min; mean of 3 independent experiments +/- SD; read-out: IC50, FP competition (unlabelled peptide)
T1 construct: A synthetic gene construct encoding full length human 14-3-3ε; made in house; host or cells: E. coli BL21(DE3)
T1 sequence (P62258 1-255): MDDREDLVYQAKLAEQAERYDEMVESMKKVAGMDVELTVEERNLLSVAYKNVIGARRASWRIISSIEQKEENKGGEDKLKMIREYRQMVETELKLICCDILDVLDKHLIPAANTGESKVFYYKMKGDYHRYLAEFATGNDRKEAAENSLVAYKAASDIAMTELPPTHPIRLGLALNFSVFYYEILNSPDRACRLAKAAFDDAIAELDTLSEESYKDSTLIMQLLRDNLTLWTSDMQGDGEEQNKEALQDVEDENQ
Experimental: Protein purity was visualized by running SDS-PAGE. […] Compound dilution plates, black 384 well NBS assay plates and tip racks were loaded into the Cytomat as indicated by the scheduling software. […] Test compounds were diluted to 3X final concentration in the dilution plates. 10 μL of diluted compound was added into each well of the assay plate followed by 10μL of […]-3-3ε and 10μL of TAMRA-p9J10Min. Plates were incubated at room temperature for 20 min on the robot's deck or in the Cytomat before the Fluorescence Polarisation was read using the BMG PheraStar plate reader. Test compounds were assayed in triplicate. […] DMSO controls were run alongside all experimental compounds and % inhibition normalised to these controls. All other experimental conditions were as described above.

[2] = target: TAMRA-9J10Min peptide (5-TAMRA-GRRRN(p-Serine)N-acid) (Streptomyces avermitilis); assay: fluorescence polarisation; His-14-3-3ε titrated against 10 nM TAMRA-p9J10Min; 10 mM HEPES, 150 mM NaCl, 0.05% Tween; room temperature
[3] = system: transcriptome of HEK293T cells; assay: RNA sequencing, differential gene expression; type: cell-based, human; conditions: 24 h
Experimental: HEK293T cells were transfected in T75 flasks with plasmid DNA encoding Vector, 9J10^WT, 9J10^AMut, GFP-FOXO3a-AAA or GFP, using JetRPIME transfection reagent. Cells were harvested 24 hr post-transfection. Five independent transfections on different days and using cells of different passage number were carried out for each condition.
Total RNA was isolated using the Qiagen RNeasy Mini Kit (#74104) complete with DNase digestion (Qiagen #79254), according to manufacturers instructions. RNA was submitted to Novogene for transcriptome sequencing. RNA degradation and contamination was monitored on 1% agarose gels. RNA purity was checked using the NanoPhotometer spectrophotometer (IMPLEN, CA, USA), and RNA integrity and quantitation were assessed using the RNA Nano 6000 Assay Kit of the Bioanalyzer 2100 system (Agilent Technologies, CA, USA).
HTSeq v0.6.1 was used to count the read numbers mapped to each gene, and then FPKM of each gene was calculated based on the length of the gene and reads count mapped to this gene. FPKM, […] Per Kilobase of exon model per Million mapped reads, considers the effect of sequencing depth and gene length for the reads count at the same time, and is currently the most commonly used method for estimating gene expression levels ([Mortazavi et al., 2008]).
Differential expression analysis between two conditions/groups (with biological replicates) was performed using the DESeq2 R package (2_1.6.3). DESeq2 provide statistical routines for determining differential expression in digital gene expression data using a model based on the negative binomial distribution. The resulting p values were adjusted using the Benjamini and Hochberg's approach for controlling the False Discovery Rate (FDR). Genes with an adjusted p value of <0.05 found by DESeq2 were assigned as differentially expressed.

[4] = target: 6x His-14-3-3ε (full length human 14-3-3ε) (human) (UniProt P62258); assay: MST; 20 nM NT-647-labelled 14-3-3ε with cognate peptide (16-point dilution; 1 μM in the competitive assay with CU7218); 10 mM Hepes, 150 mM NaCl, 0.01% Tween 20; 25°C
[5] = target: 6x His-14-3-3ε (full length human 14-3-3ε) (human) (UniProt P62258); assay: fluorescence polarisation; competition: unlabelled 9J10 peptide titrated against 10 nM TAMRA-p9J10Min bound to 1.5 μM His-14-3-3ε; 10 mM HEPES, 150 mM NaCl, 0.05% Tween
[6] = GFP-FOXO3a-AAA vs GFP, adjusted p <0.05

Molecule: CCC(=C/[C@H](C)C/C=C/C(C)=C/[C@@H](C)C(=O)[C@@H](C)[C@H](O)[C@@H](C)C/C(C)=C/C(=O)O)/C=C/[C@@H]1OC(=O)C=C[C@@H]1C [leptomycin B]
- relocalization of GFP-FOXO3a to the nucleus ([1]; U2OS-GFP-FOXO3a, 3 hr treatment, Figure 1A: PI-103 1 μM, GSK690693 1 μM, leptomycin 2 nM): can be relocalized to the nucleus

Molecule: Oc1cccc(-c2nc(N3CCOCC3)c3oc4ncccc4c3n2)c1 [PI-103]
- nuclear translocation of GFP-FOXO3a ([1]; 1 μM PI-103, positive control): high degree of nuclear translocation of GFP-FOXO3a

B1: GFP-FOXO3a-AAA: constitutively active GFP-tagged FOXO3a mutant (protein, UniProt O43524 1-673, looked up, variant T32A S253A S315A)
Forkhead box protein O3: MAEAPASPAPLSPLEVELDPEFEPQSRPRSCAWPLQRPELQASPAKPSGETAADSMIPEEEDDEDDEDGGGRAGSAMAIGGGGGSGTLGSGLLLEDSARVLAPGGQDPGSGPATAAGGLSGGTQALLQPQQPLPPPQPGAAGGSGQPRKCSSRRNAWGNLSYADLITRAIESSPDKRLTLSQIYEWMVRCVPYFKDKGDSNSSAGWKNSIRHNLSLHSRFMRVQNEGTGKSSWWIINPDGGKSGKAPRRRAVAMDNSNKYTKSRGRAAKKKAALQTAPESADDSPSQLSKWPGSPTSRSSDELDAWTDFRSRTNANASTVSGRLSPIMASTELDEVQDDDAPLSPMLYSSSASLSPSVSKPCTVELPRLTDMAGTMNLNDGLTENLMDDLLDNITLPPSQPSPTGGLMQRSSSFPYTTKGSGLGSPTSSFNSTVFGPSSLNSLRQSPMQTIQENKPATFSSMSHYGNQTLQDLLTSDSLSHSDVMMTQSDPLMSQASTAVSAQNSRRNVMLRNDPMMSFAAQPNQGSLVNQNLLHHQHQTQGALGGSRALSNSVSNMGLSESSSLGSAKHQQQSPVSQSMQTLSDSLSGSSLYSTSANLPVMGHEKFPSDLDLDMFNGSLECDMESIIRSELMDADGLDFNFDSLISTQNVVGLNVGNFTGAKQASSQSWVPG
modifications: GFP tag
- number of downregulated genes [3, 6]: 2,569 genes
- number of upregulated genes [3, 6]: 3,026 genes
- CDKN1A (p21^Cip1) expression ([3]; HEK293T): upregulated
- CDKN1B (p27^Kip1) expression ([3]; HEK293T): upregulated

Results, then the molecule that gave them:

- IC50 (9J10/14-3-3ε interaction): 9.8 ± 1.2 µM
Molecule: CC(C)C[C@H](N)C(=O)N[C@@H](CC(N)=O)C(=O)N[C@@H](CCCNC(=N)N)C(=O)N[C@H](C(=O)N1CCC[C@H]1C(=O)NCC(=O)N[C@@H](CCCNC(=N)N)C(=O)N[C@@H](CCCNC(=N)N)C(=O)N[C@@H](CCCNC(=N)N)C(=O)N[C@@H](CC(N)=O)C(=O)N[C@@H](COP(=O)(O)O)C(=O)N[C@@H](CC(N)=O)C(=O)O)[C@@H](C)O [unlabeled 9J10-derived phosphopeptide]

- Kd [2]: 1.47 µM
Molecule: 6x His-14-3-3ε (full length human 14-3-3ε) (from UniProt P62258 1-255) (natural protein)

- EC80 [4]: 1 µM
- IC50 [5]: 9.8 µM
B2: Unlabelled 9J10 peptide (…(p-Serine)N-acid) (peptide)
peptide: LNRTPGRRRNSN
HELM: PEPTIDE1{L.N.R.T.P.G.R.R.R.N.[O=C([C@H](COP(=O)(O)O)N[*:1])[*:2]].N}$$$$V2.0; N-terminus assumed
SMILES: CC(C)C[C@H](N)C(=O)N[C@@H](CC(N)=O)C(=O)N[C@@H](CCCNC(=N)N)C(=O)N[C@H](C(=O)N1CCC[C@H]1C(=O)NCC(=O)N[C@@H](CCCNC(=N)N)C(=O)N[C@@H](CCCNC(=N)N)C(=O)N[C@@H](CCCNC(=N)N)C(=O)N[C@@H](CC(N)=O)C(=O)N[C@@H](COP(=O)(O)O)C(=O)N[C@@H](CC(N)=O)C(=O)O)[C@@H](C)O
